Biological target: SARS-CoV-2 Spike S1 (Omicron) (SARS-CoV-2 Omicron B.1.1.529 (BA.1), strain)
Experiment: SPR

B1: Cilgavimab (antibody, V domains shown)
VH: EVQLVESGGGLVKPGGSLRLSCAASGFTFRDVWMSWVRQAPGKGLEWVGRIKSKIDGGTTDYAAPVKGRFTISRDDSKNTLYLQMNSLKTEDTAVYYCTTAGSYYYDTVGPGLPEGKFDYWGQGTLVTVSS
VL: not shown
B1: binds.

From paper doi:10.1101/2022.01.19.476998 (bioRxiv, 2022)
